Data: paper PMC7677311, “Disrupting Plasmodium UIS3–host LC3 interaction with a small molecule causes parasite elimination from host cells” (Communications Biology, 2020)

Target: LC3 (Microtubule-associated protein 1A/1B-light chain 3) (UniProt Q9GZQ8 1-120)
Assay: ITC; 100 µM LC3 titrated into 10 µM PfUIS3; MicroCal ITC 200, 25 °C; 50 mM sodium phosphate, 150 mM NaCl, pH 6.5; one-site binding model
Settings: both partners purified

B1: Plasmodium falciparum UIS3 (Upregulated in infective sporozoites 3) (natural protein)
chain: INKINLNKPIIENKNNVDVSIKRYNNFVDIARLSIQKHFEHLSNDQKDSHVNNMEYMQKFVQGLQENRNISLSKYQENKAVMDLKYHLQKVYANYLSQEEN
modifications: Construct limits are not given; the soluble domain is taken from PDB 2VWA, which the paper cites for PfUIS3. The His tag was removed with thrombin; the residual myc tag is left out.
  Kd: 2150 ± 121 nM
